Results as given in patent publication US20250313632A1.
Where two headings read alike, the source gives them in different places.

Key:
[1] = target: human B7-H3 protein (human) (UniProt Q5ZPR3); test: Octet (BLI) epitope binning on captured human B7-H3; competitor CA84D
[2] = target: human B7-H3 protein (human) (UniProt Q5ZPR3); test: Octet (BLI) epitope binning on captured human B7-H3; competitor 72D1D11
[3] = target: human B7-H3 protein (human) (UniProt Q5ZPR3); test: Octet (BLI) epitope binning on captured human B7-H3; competitor AHP05562
[4] = target: human B7-H3 protein (human) (UniProt Q5ZPR3); test: Octet (BLI) epitope binning on captured human B7-H3; competitor AHP06345
[5] = target: human B7-H3 expressed on A375 tumor cells (human) (UniProt Q5ZPR3); test: flow cytometry on A375 cells, MFI(PE); unit from the axis Conc (nM)
[6] = target: human B7-H3 (4Ig) protein (his tag) (human) (UniProt Q5ZPR3); test: SPR (Biacore T200), antibody captured on Protein A chip, B7-H3 injected, 1:1 model
[7] = target: human B7-H3 expressed on A375 tumor cells (human) (UniProt Q5ZPR3); test: flow cytometry on A375 cells, MFI(PE); unit from the axis Conc (nM); remark: listed apart in the source

B1: 294A3C4 (antibody, V domains shown)
VH: QVQLQQPGAELVKPGASVKLSCKASGYTFTSYWMHWVKQRPGQGLEWIGMFHPNSGTTNYNEKFKSKATLTVDKSSSTAYMQLSSLTSEDSAVYYCARRLGIFFDYWGQGTTLTVSS
VL: DIVMTQSPSSLTVTAGEKVTMSCRSSQSLLNSGNQKNYLTWYQQKPGQPPKLLIYWASTRDSGVPDRFTGSGSGTDFTLTISSVQTEDLAVYYCQTDYSYPFTFGSGTKLEIK
[1]
  inhibition ratio: -12%
[2]
  inhibition ratio: -5%
[3]
  inhibition ratio: 90%
[4]
  inhibition ratio: -7.53%
[5]
  EC50: 0.087 nM
[6]
  Kd: 2.92 nM
  koff: 0.00135 s⁻¹
  kon: 463000 M⁻¹ s⁻¹

B2: AHP06358 (antibody, V domains shown)
VH: EVQLVQSGAEVKKPGASVKVSCKASGYTFTSYGISWVRQAPGQGLEWMGWISAYNGNTNYAQKLQGRVTMTTDTSTSTAYMELRSLRSDDTAVYYCARDSPLQIAVAGYYYGMDVWGQGTTVTVSS
VL: NFMLTQPHSVSESPGKTVTISCTRSSGSIVSGYVQWYQQRPGSAPSTVIYEHNQRPSGVPDRFSGSIDSSSNSASLTISGLRTEDEADYYCQSYDSRNMIFGGGTKLTVL
[1]
  inhibition ratio: -13.6%
[2]
  inhibition ratio: -13.9%
[3]
  inhibition ratio: 91.7%
[4]
  inhibition ratio: -10.6%
[5]
  EC50: 2.4 nM
[6]
  Kd: 0.738 nM
  koff: 0.00396 s⁻¹
  kon: 5.37e+06 M⁻¹ s⁻¹

B3: 62H9H5 (antibody, V domains shown)
VH: QVQLQQSGAELAKPGASVKMSCKASGYTFTNYWIHWVKQRPGQGLEWIGYISPSTGYTEYNQKFKGKATLTAVKSSSTAFMQLSSLTSEDSAVYFCARGTGYWGQGTTLTVSS
VL: DIQMTQSPASLSASVGESVTITCRASENIYSFFAWYQQKEGKSPQLLVYNAKTLEEGVPSRFSGSGSGTQFSLKINSLQPEDFGSYYCQHNYVSPFTFGSGTKLEIK
[1]
  inhibition ratio: -6.07%
[2]
  inhibition ratio: 95.5%
[3]
  inhibition ratio: 90.2%
[4]
  inhibition ratio: -7.1%
[5]
  EC50: 0.042 nM
[6]
  Kd: 0.464 nM
  koff: 0.00016 s⁻¹
  kon: 346000 M⁻¹ s⁻¹

B4: 72D1D11-z1 (antibody, V domains shown)
VH: QVQLVQSGSELKKPGASVKVSCKASGYTFTNLGLNWVRQAPGQGLEWMGWINTAGGQPTYAEDFKGRFVFSLDTSVSTAYLQISSLKAEDTAVYYCARDDGYYYTMDYWGQGTTVTVSS
VL: DIVMTQTPLSLPVTPGEPASISCRSSQSLVHSNGKTYLHWYLQKPGQSPQLLIYKVSNRFSGVPDRFSGSGSGTDFTLKISRVEAEDVGVYYCSQSTHVPWTFGGGTKLEIK
[7]
  EC50: 0.63 nM

B5: 72D1D11-z2 (antibody, V domains shown)
VH: QVQLVQSGSELKKPGASVKVSCKASGYTFTNLGLNWVRQAPGQGLEWMGWINTAGGQPTYAEDFKGRFVFSLDTSVSTAYLQISSLKAEDTAVYYCARDDGYYYTMDYWGQGTTVTVSS
VL: DIVMTQTPLSLPVTPGEPASISCRSSQSLVHSNGKTYLHWYLQKPGQSPQLLIYKVSNRFSGVPDRFSGSGSGTDFTLKISRVEAEDVGVYFCSQSTHVPWTFGGGTKLEIK
[7]
  EC50: 0.52 nM

B6: 72D1D11-z4 (antibody, V domains shown)
VH: QVQLVQSGSELKKPGASVKVSCKASGYTFTNLGLNWVRQAPGQGLEWMGWINTAGGQPTYAEDFKGRFVFSLDTSVSTAYLQISSLKAEDTAVYYCARDDGYYYTMDYWGQGTTVTVSS
VL: DIVMTQSPLSLPVTPGEPASISCRSSQSLVHSNGKTYLHWYLQKPGQSPQLLIYKVSNRFSGVPDRFSGSGSGTDFTLKISRVEAEDVGVYFCSQSTHVPWTFGGGTKLEIK
[7]
  EC50: 0.49 nM

B7: 72D1D11-z5 (antibody, V domains shown)
VH: QVQLVQSGSELKKPGASVKVSCKASGYTFTNLGLNWVRQAPGQGLEWMGWINTAGGQPTYAEDFKGRCVFSLDTSVSTAYLQISSLKAEDTAVYYCARDDGYYYTMDYWGQGTTVTVSS
VL: DIVMTQTPLSLPVTPGEPASISCRSSQSLVHSNGKTYLHWYLQKPGQSPQLLIYKVSNRFSGVPDRFSGSGSGTDFTLKISRVEAEDVGVYYCSQSTHVPWTFGGGTKLEIK
[7]
  EC50: 0.51 nM

B8: 72D1D11-z6 (antibody, V domains shown)
VH: QVQLVQSGSELKKPGASVKVSCKASGYTFTNLGLNWVRQAPGQGLEWMGWINTAGGQPTYAEDFKGRCVFSLDTSVSTAYLQISSLKAEDTAVYYCARDDGYYYTMDYWGQGTTVTVSS
VL: DIVMTQTPLSLPVTPGEPASISCRSSQSLVHSNGKTYLHWYLQKPGQSPQLLIYKVSNRFSGVPDRFSGSGSGTDFTLKISRVEAEDVGVYFCSQSTHVPWTFGGGTKLEIK
[7]
  EC50: 0.54 nM

B9: 72D1D11-z7 (antibody, V domains shown)
VH: QVQLVQSGSELKKPGASVKVSCKASGYTFTNLGLNWVRQAPGQGLEWMGWINTAGGQPTYAEDFKGRCVFSLDTSVSTAYLQISSLKAEDTAVYYCARDDGYYYTMDYWGQGTTVTVSS
VL: DIVMTQSPLSLPVTPGEPASISCRSSQSLVHSNGKTYLHWYLQKPGQSPQLLIYKVSNRFSGVPDRFSGSGSGTDFTLKISRVEAEDVGVYYCSQSTHVPWTFGGGTKLEIK
[7]
  EC50: 0.52 nM

B10: 72D1D11-z8 (antibody, V domains shown)
VH: QVQLVQSGSELKKPGASVKVSCKASGYTFTNLGLNWVRQAPGQGLEWMGWINTAGGQPTYAEDFKGRCVFSLDTSVSTAYLQISSLKAEDTAVYYCARDDGYYYTMDYWGQGTTVTVSS
VL: DIVMTQSPLSLPVTPGEPASISCRSSQSLVHSNGKTYLHWYLQKPGQSPQLLIYKVSNRFSGVPDRFSGSGSGTDFTLKISRVEAEDVGVYFCSQSTHVPWTFGGGTKLEIK
[7]
  EC50: 0.46 nM

B11: 97E6B2 (antibody, V domains shown)
VH: QVQLQQPGAELVKPGASVKMSCKASGYTFTSYWITWVKQRPGQGLEWIGDIYPGSNNTYYNEKFKSKATLTVDTSSSTAYIQLSSLTSEDSAVYYCARLIMSLFDYSGQGTTLTVSS
VL: ENVLTQSPANMSASPGEKVTMTCSVSSSVSYIHWYQQKSSTSPTLWIYDTSKLASGVPGRFSGSGSGNSYALTISSMEAEDVATYYCFQGSAYPLTFGAGTKLELK
[1]
  inhibition ratio: -3.99%
[2]
  inhibition ratio: 99.7%
[3]
  inhibition ratio: -7.8%
[4]
  inhibition ratio: -1.18%
[5]
  EC50: 0.26 nM
[6]
  Kd: 0.743 nM
  koff: 0.000481 s⁻¹
  kon: 647000 M⁻¹ s⁻¹

B12: 72D1D11-z3p1 (antibody, V domains shown)
VH: QVQLVQSGSELKKPGASVKVSCKASGYTFTNLGLNWVRQAPGQGLEWMGWINTAGGQPTYAEDFKGRFVFSLDTSVSTAYLQISSLKAEDTAVYYCARDDGYYYTMDYWGQGTTVTVSS
VL: DIVMTQSPLSLPVTPGEPASISCRSSQSLVHSNAKTYLHWYLQKPGQSPQLLIYKVSNRFSGVPDRFSGSGSGTDFTLKISRVEAEDVGVYYCSQSTHVPWTFGGGTKLEIK
[5]
  EC50: 0.36 nM

B13: 72D1D11-z3p2 (antibody, V domains shown)
VH: QVQLVQSGSELKKPGASVKVSCKASGYTFTNLGLNWVRQAPGQGLEWMGWINTAGGQPTYAEDFKGRFVFSLDTSVSTAYLQISSLKAEDTAVYYCARDDGYYYTMDYWGQGTTVTVSS
VL: DIVMTQSPLSLPVTPGEPASISCRSSQSLVHSQGKTYLHWYLQKPGQSPQLLIYKVSNRFSGVPDRFSGSGSGTDFTLKISRVEAEDVGVYYCSQSTHVPWTFGGGTKLEIK
[5]
  EC50: 0.3 nM

B14: 106A5B3 (antibody, V domains shown)
VH: EVQLVESGGDLVKPGGSLKLSCAASGFTFSSYGMSWVRQTPDKRLEWVATISSGGSYIYYPDSMKGRFTISRDNAKNTLYLQMSSLQSEDTAIYYCASDYGSRYFDYWGQGTTLTVSS
VL: QIVLTQSPAIMSASPGEKVTMTCSASSSVIYMSWYKQKPGSSPRLLIYDTSNLASGVPVRFSGSGSGTSYSLTISRMEAEDAATYYCQQWSSYPRTFGGGTKLEIK
[1]
  inhibition ratio: -15.8%
[2]
  inhibition ratio: 96.8%
[3]
  inhibition ratio: 89.6%
[4]
  inhibition ratio: -13%
[5]
  EC50: 0.1 nM
[6]
  Kd: 0.476 nM
  koff: 0.000396 s⁻¹
  kon: 833000 M⁻¹ s⁻¹

B15: 126C10B10 (antibody, V domains shown)
VH: GVQLQQSGAELVKPGASVKLSCTGSGFNIKDPYIHWVKQRPEQGLEWIGRIDPANGNTKYGPRFQGRATMTADTSSNTANLQLSSLTSEDTAVYYCTTWNYYLSRGFDYWGQGTTLTVSS
VL: QIVLTQSPAIMSASPGEKVTMTCSARSSVTYMHWYQQKSGTSPKRWIYDTSKLASGVPARFSGSGSGTSYSLTISSMEAEDAATYYCQQWTSNPLTFGAGTKLELK
[1]
  inhibition ratio: -9.58%
[2]
  inhibition ratio: 96.6%
[3]
  inhibition ratio: -22.2%
[4]
  inhibition ratio: -5.98%
[5]
  EC50: 0.22 nM
[6]
  Kd: 0.837 nM
  koff: 0.000367 s⁻¹
  kon: 438000 M⁻¹ s⁻¹

B16: 216E7A9 (antibody, V domains shown)
VH: DVQLVESGGGLVQPGGSRKLSCAASGFTFSSFGMHWVRQAPEKGLEWVAYISSGSSTIYYADTVRGRFTISRDNPKNTLFLQMTSLRSEDTAMYYCARGGDYYYALDYWGQGTSVTVSS
VL: DIQMTQSPASLSVSVGETVTITCRASENIHSNLEWYQQKQGKSPQLLVYAATNLADGVPSRFSGSGSGTQYSLKINSLQSEDFGSYYCQHFWGTPFTFGSGTKLEIK
[1]
  inhibition ratio: 5.28%
[2]
  inhibition ratio: 98%
[3]
  inhibition ratio: 92.3%
[4]
  inhibition ratio: 1.99%
[5]
  EC50: 0.08 nM
[6]
  Kd: 2.49 nM
  koff: 0.000824 s⁻¹
  kon: 331000 M⁻¹ s⁻¹

B17: 227E12D1 (antibody, V domains shown)
VH: EVKLVESGGGLVKPGGSLKLSCAASGFTFSSYGMSWVRQTPEKRLEWVATISGGGTYTYYPDSVKGRFTISRDNAKNNLYLQMSSLRSDDTALYYCARHEGLVMDYWGQGTSVTVSS
VL: DIQMTQSPASLSASVGETVTITCRASENIYSYLAWYQQKQGKSPQLVVYNAKTLAEGVPSRFSGSGSGTQFSLKINSLQPEDFGTYYCQHHYGPPPYTFGGGTKLEIK
[1]
  inhibition ratio: -5.46%
[2]
  inhibition ratio: 97.1%
[3]
  inhibition ratio: 90%
[4]
  inhibition ratio: -5.22%
[5]
  EC50: 0.093 nM
[6]
  Kd: 0.619 nM
  koff: 0.000368 s⁻¹
  kon: 595000 M⁻¹ s⁻¹
